Laboratory results as given in patent US20050032186, “Regulatory zinc finger proteins” (published 2005).

Tests used:
F480 = F480 (artificial (human zinc finger domains)); test: cell_activity; endogenous VEGF-A conc., unit not given; parental vector 400
F2610 = F2610 (artificial (human zinc finger domains)); test: as above; conditions: tags: HA, NLS, p65
F2650 = F2650 (artificial (human zinc finger domains)); test: as above; conditions: tags: HA, NLS, p65
F2644 = F2644 (artificial (human zinc finger domains)); test: as above; conditions: tags: HA, NLS, p65
Chain of F2644 (artificial (human zinc finger domains)) (chain, as listed by the source): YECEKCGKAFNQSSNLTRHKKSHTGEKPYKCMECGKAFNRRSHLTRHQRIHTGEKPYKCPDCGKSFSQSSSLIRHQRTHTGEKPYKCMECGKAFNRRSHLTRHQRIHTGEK

F2604 = F2604 (artificial (human zinc finger domains)); test: as above; conditions: tags: HA, NLS, p65
Chain of F2604 (artificial (human zinc finger domains)) (chain, as listed by the source): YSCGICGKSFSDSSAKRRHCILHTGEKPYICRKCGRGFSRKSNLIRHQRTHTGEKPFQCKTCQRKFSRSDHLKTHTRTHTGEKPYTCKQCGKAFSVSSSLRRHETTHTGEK

F2646 = F2646 (artificial (human zinc finger domains)); test: as above; conditions: tags: HA, NLS, p65
Chain of F2646 (artificial (human zinc finger domains)) (chain, as listed by the source): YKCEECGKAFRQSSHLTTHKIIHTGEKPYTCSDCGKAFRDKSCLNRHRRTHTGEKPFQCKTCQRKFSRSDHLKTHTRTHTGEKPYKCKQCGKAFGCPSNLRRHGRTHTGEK

F2607 = F2607 (artificial (human zinc finger domains)); test: cell_activity; endogenous VEGF-A conc., unit inferred; parental vector 400; conditions: tags: HA, NLS, p65
Chain of F2607 (artificial (human zinc finger domains)) (chain, as listed by the source): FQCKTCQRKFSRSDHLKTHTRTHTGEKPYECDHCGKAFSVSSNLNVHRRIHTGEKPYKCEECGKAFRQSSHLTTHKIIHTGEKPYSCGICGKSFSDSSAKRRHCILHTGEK

F2679 = F2679 (artificial (human zinc finger domains)); test: as above; conditions: tags: HA, NLS, p65
Chain of F2679 (artificial (human zinc finger domains)) (chain, as listed by the source): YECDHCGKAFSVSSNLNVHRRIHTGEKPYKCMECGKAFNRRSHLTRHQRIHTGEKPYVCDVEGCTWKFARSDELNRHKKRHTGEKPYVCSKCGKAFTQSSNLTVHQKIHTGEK

F2638 = F2638 (artificial (human zinc finger domains)); test: cell_activity; endogenous VEGF-A conc., unit not given; parental vector 400; conditions: tags: HA, NLS, p65
Chain of F2638 (artificial (human zinc finger domains)) (chain, as listed by the source): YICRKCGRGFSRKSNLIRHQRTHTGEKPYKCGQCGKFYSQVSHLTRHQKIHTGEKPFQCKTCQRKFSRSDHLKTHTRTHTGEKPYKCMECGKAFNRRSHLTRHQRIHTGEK

F475 = F475 (artificial (human zinc finger domains)); test: as above
Chain of F475 (artificial (human zinc finger domains)) (chain, as listed by the source): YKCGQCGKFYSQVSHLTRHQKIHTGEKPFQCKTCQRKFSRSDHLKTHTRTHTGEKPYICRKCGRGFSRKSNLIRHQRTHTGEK

F2612 = F2612 (artificial (human zinc finger domains)); test: cell_activity; endogenous VEGF-A conc., unit inferred; parental vector 400; conditions: tags: HA, NLS, p65
Chain of F2612 (artificial (human zinc finger domains)) (chain, as listed by the source): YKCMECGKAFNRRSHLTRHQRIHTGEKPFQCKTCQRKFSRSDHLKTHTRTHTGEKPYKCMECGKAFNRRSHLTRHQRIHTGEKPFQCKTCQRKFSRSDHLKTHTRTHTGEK

F2633 = F2633 (artificial (human zinc finger domains)); test: cell_activity; endogenous VEGF-A conc., unit not given; parental vector 400; conditions: tags: HA, NLS, p65
Chain of F2633 (artificial (human zinc finger domains)) (chain, as listed by the source): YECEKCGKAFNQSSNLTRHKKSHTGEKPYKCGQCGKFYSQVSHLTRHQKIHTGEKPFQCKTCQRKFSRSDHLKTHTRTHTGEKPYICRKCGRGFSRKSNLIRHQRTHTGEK

F2615 = F2615 (artificial (human zinc finger domains)); test: as above; conditions: tags: HA, NLS, p65
Chain of F2615 (artificial (human zinc finger domains)) (chain, as listed by the source): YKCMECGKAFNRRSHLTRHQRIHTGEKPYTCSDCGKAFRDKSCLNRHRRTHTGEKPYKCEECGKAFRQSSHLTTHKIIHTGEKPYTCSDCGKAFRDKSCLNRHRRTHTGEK

F2634 = F2634 (artificial (human zinc finger domains)); test: as above; conditions: tags: HA, NLS, p65
Chain of F2634 (artificial (human zinc finger domains)) (chain, as listed by the source): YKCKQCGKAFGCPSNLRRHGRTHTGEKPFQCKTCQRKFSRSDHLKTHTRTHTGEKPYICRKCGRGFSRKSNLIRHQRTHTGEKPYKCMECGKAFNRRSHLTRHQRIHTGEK

F109-KRAB = F109-KRAB (artificial (human zinc finger domains)); test: cell_activity; luciferase reporter with native VEGF promoter -950 to +450, 293 cells, 30 ng plasmid; conditions: tags: HA, NLS
Chain of F109-KRAB (artificial (human zinc finger domains)) (chain, as listed by the source): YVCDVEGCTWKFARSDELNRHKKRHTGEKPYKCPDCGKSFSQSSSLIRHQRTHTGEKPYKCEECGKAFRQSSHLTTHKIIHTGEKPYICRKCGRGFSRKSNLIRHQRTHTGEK
Description: (§1) Human embryonic kidney 293 cells were maintained in Dulbecco's modified Eagle medium (DMEM) supplemented with 100 units/ml penicillin, 100 μg/ml streptomycin, and 10% fetal bovine serum (FBS). For the luciferase assay, 10⁴ cells/well were pre-cultured in a 96-well plate. Using a LIPOFECTAMINE™ transfection kit (Life Technologies, Rockville, Md.), 293 cells were transfected with 25 ng of a reporter plasmid in which the native VEGF-A promoter was fused to the luciferase gene in pGL3-basic (Promega), and 25 ng of a plasmid encoding a zinc finger protein. After 48 h of incubation, luciferase activity was measured with a DUAL LUCIFERASE™ assay kit (Promega) using a TD-20/20 luminometer (Turner Designs Inc., Sunnyvale, Calif.).
(§2) 293 cells were transfected with luciferase reporter plasmid pGL3-VEGFprom containing native human VEGF promoter(−950 to +450 from the transcription initiation site) and 30 ng of pLFD-F121-KRAB or pLFD-F109-KRAB. Luciferase activity was measured as described. Fold repression values were calculated by normalizing the firefly luciferase activity against the renilla luciferase activity and the result was compared with that of the control wherein 293 cells were transfected with the control vector pLFD and the reporter plasmid.

F121-KRAB = F121-KRAB (artificial (human zinc finger domains)); test: as above; conditions: tags: HA, NLS
Chain of F121-KRAB (artificial (human zinc finger domains)) (chain, as listed by the source): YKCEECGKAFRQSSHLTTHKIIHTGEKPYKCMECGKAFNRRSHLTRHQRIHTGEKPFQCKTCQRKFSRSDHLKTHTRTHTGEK
Description: as §1, §2

F121 = F121 (artificial (human zinc finger domains)); test: cell_activity; endogenous VEGF-A conc., unit inferred; parental vector 400
F2605 = F2605 (artificial (human zinc finger domains)); test: cell_activity; endogenous VEGF-A conc., unit not given; parental vector 400; conditions: tags: HA, NLS, p65
Chain of F2605 (artificial (human zinc finger domains)) (chain, as listed by the source): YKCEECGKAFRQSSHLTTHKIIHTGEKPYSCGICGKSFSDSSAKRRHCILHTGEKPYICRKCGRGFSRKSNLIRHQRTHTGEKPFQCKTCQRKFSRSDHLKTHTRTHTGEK

Chain of F2610 (artificial (human zinc finger domains)) (chain, as listed by the source): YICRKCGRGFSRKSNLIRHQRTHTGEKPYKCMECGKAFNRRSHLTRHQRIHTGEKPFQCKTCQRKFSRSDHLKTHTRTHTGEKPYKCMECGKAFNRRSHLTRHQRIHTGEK
Chain of F480 (artificial (human zinc finger domains)) (chain, as listed by the source): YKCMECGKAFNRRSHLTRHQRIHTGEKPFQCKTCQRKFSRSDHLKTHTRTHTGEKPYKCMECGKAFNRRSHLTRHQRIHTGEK
Chain of F2650 (artificial (human zinc finger domains)) (chain, as listed by the source): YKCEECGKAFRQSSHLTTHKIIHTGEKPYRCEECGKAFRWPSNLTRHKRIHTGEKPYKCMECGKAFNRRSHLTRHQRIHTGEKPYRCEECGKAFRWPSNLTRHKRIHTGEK

B1: VEGF-A -633R (9 bp) (dsDNA)
DNA 1: GGGTGGGGG
DNA 2: CCCCCACCC
F480
  activity: 3100

B2: VEGF-A -633R (12 bp) (dsDNA)
DNA 1: GGGTGGGGGGAG
DNA 2: CTCCCCCCACCC
F2610
  activity: 2300

B3: VEGF-A -206 (dsDNA)
DNA 1: GGTGGGGGTCGA
DNA 2: TCGACCCCCACC
F2650
  activity: 4400

B4: VEGF-A -358R (dsDNA)
DNA 1: GGGGCAGGGGAA
DNA 2: TTCCCCTGCCCC
F2644
  activity: 4200

B5: VEGF-A -680 (dsDNA)
DNA 1: GTTTGGGAGGTC
DNA 2: GACCTCCCAAAC
F2604
  activity: 1000

B6: VEGF-A -314R (dsDNA)
DNA 1: GACAGGGCCTGA
DNA 2: TCAGGCCCTGTC
F2646
  activity: 3400

B7: VEGF-A -671 (dsDNA)
DNA 1: GTCAGAAATAGG
DNA 2: CCTATTTCTGAC
F2607
  activity: 1600 pg/mL

B8: VEGF-A +244R (dsDNA)
DNA 1: CAAGTGGGGAAT
DNA 2: ATTCCCCACTTG
F2679
  activity: 1500 pg/mL

B9: VEGF-A -391R (12 bp) (dsDNA)
DNA 1: GGGTGGGGAGAG
DNA 2: CTCTCCCCACCC
F2638
  activity: 1900

B10: VEGF-A -455 (9 bp) (dsDNA)
DNA 1: GAGCGGGGA
DNA 2: TCCCCGCTC
F475
  activity: 4150

B11: VEGF-A -630R (dsDNA)
DNA 1: AGGGGGTGGGGG
DNA 2: CCCCCACCCCCT
F2612
  activity: 2000 pg/mL

B12: VEGF-A -455 (12 bp) (dsDNA)
DNA 1: GAGCGGGGAGAA
DNA 2: TTCTCCCCGCTC
F2633
  activity: 4500

B13: VEGF-A -606 (dsDNA)
DNA 1: GCCAGAGCCGGG
DNA 2: CCCGGCTCTGGC
F2615
  activity: 2700

B14: VEGF-A -395R (dsDNA)
DNA 1: GGGGAGAGGGAC
DNA 2: GTCCCTCTCCCC
F2634
  activity: 2100

B15: VEGF-A -536 (dsDNA)
DNA 1: GAGCGAGCAGCG
DNA 2: CGCTGCTCGCTC
F109-KRAB
  activity: 6.1 fold repression

B16: VEGF-A +434 (dsDNA)
DNA 1: TGGGGGTGA
DNA 2: TCACCCCCA
F121-KRAB
  activity: 8.7 fold repression
F121
  activity: 1300 pg/mL

B17: VEGF-A -677 (dsDNA)
DNA 1: TGGGAGGTCAGA
DNA 2: TCTGACCTCCCA
F2605
  activity: 3700
